Series [1] has as its system Cyclin T1 (P-TEFb subunit);CDK9 (P-TEFb subunit);HIV-1 Tat;AFF4 2-73 (human;not given;HIV-1;not given). As to the kind of experiment: EMSA.
In series [2] the test system is Cyclin T1 (P-TEFb subunit);CDK9 (P-TEFb subunit);HIV-1 Tat;AFF4 2-98 (human;not given;HIV-1;not given). As to the kind of experiment: EMSA. (In EMSA bound probe runs differently from free probe, usually more slowly.)
For series [3], the system named is Cyclin T1 (P-TEFb subunit);CDK9 (P-TEFb subunit);HIV-1 Tat;AFF4 32-67 (human;not given;HIV-1;not given). In words: EMSA.
Series [4] concerns the target Tat-P-TEFb complex (HIV-1 Tat 1–57, CDK9 1–330, cyclin T1 1–264) (HIV-1 | human, UniProt P04608 1-57; P50750 1-330; O60563 1-264, N-terminally acetylated (N-acetyl group on M1)). As to the kind of experiment: cell-based or functional assay.
The target in the next series is T1, human cyclin T1 1–264 (human, UniProt O60563 1-264).
T1 construct: human cyclin T1, residues 1-264; also called CycT1
In words: crystal structure; quaternary complex of Tat 1–57, AFF4 2–73, CDK9 1–330 and CycT1 1–264; 3.0 Å; three complexes in the a.u.; crystals from 2.4 M sodium formate, 10 mM MgCl2 at 18°C. The conditions noted are these: both partners purified.

The target in another series is T2, human CDK9 1–330 (human, UniProt P50750 1-330).
T2 construct: human CDK9, residues 1-330
The series is described as above. The conditions noted are these: both partners purified.

For series [5], the target named is Tat-P-TEFb complex (HIV-1 Tat 1–57, CDK9 1–330, cyclin T1 1–264) (HIV-1 | human) (UniProt P04608).

Consider four molecules from PMC4013717, “AFF4 binding to Tat-P-TEFb indirectly stimulates TAR recognition of super elongation complexes at the HIV promoter” (eLife, 2014).

T1 sequence (O60563 1-264): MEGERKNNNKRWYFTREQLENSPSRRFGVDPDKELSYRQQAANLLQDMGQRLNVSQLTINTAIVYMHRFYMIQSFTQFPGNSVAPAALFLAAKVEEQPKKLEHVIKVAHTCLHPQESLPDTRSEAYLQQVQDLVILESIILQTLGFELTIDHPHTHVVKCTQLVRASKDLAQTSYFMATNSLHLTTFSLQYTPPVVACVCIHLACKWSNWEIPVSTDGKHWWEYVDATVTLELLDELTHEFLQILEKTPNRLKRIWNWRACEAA
T2 sequence (P50750 1-330): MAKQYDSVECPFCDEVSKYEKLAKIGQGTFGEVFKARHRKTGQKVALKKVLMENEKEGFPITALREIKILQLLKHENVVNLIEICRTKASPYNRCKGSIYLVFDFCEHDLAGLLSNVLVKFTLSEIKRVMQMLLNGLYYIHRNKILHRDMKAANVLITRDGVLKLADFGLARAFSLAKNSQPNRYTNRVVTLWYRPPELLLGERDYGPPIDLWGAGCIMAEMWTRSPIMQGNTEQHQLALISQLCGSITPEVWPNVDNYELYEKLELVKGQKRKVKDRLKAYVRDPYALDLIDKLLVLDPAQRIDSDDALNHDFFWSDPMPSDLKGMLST

Turning to TAR RNA (nucleotides 18-44), the K half in series [1], in series [2] and in series [3] was 1.1 nM in each case.

B1: AFF4 fragment 2–73 (domain or fragment, UniProt Q9UHB7 2-73, looked up)
chain: NREDRNVLRMKERERRNQEIQQGEDAFPPSSPLFAEPYKVTSKEDKLSSRIQSMLGNYDEMKDFIGDRSIPK
notes: AFF4 (SEC scaffold), residues 2-73; The His-tag is TEV-protease-cleavable; also called AFF4_(2–73); source: E. coli, purified
Consider B1, for which the “EMSA with 32P-labeled TAR RNA and Tat-P-TEFb in the presence of excess AFF4 2–73: increase of the affinity for TAR” value in series [4] came out at 30 fold. In addition, the binding result with human cyclin T1 1–264 and with human CDK9 1–330 was “binds” each time.

B2: AFF4 fragment 2–98 (domain or fragment)
chain: NREDRNVLRMKERERRNQEIQQGEDAFPPSSPLFAEPYKVTSKEDKLSSRIQSMLGNYDEMKDFIGDRSIPKLVAIPKPTVPPSADEKSNPNFFEQR
In the case of B2, the EMSA with 32P-labeled TAR RNA and Tat-P-TEFb in the presence of excess AFF4 2–98: increase of the affinity for TAR in series [5] amounted to 30 fold.

For the molecule SPLFAEPYKVTSKEDKLSSRIQSMLGNYDEMKDFIG (domain or fragment) [AFF4 fragment 32–67], the EMSA with 32P-labeled TAR RNA and Tat-P-TEFb in the presence of excess AFF4 32–67: increase of the affinity for TAR in series [5] was found to be 30 fold.
